Consider one protein from article PMC12401477 (Cell reports, 2025).

Data set [1] concerns the molecule itself. The data set is described as follows: mass photometry.
Data set [2] deals with the molecule itself. The data set is described as follows: mass photometry. This is another data set of the same source.

B1: N-terminally extended IRF7 isoform (exIRF7, intron 1 retained) with C-terminal 3xFLAG tag (natural protein, human, UniProt Q92985-4 1-516, looked up)
chain: MPVPERPAAGPDSPRPGTRRAAPRVLFGEWLLGEISSGCYEGLQWLDEARTCFRVPWKHFARKDLSEADARIFKAWAVARGRWPPSSRGGGPPPEAETAERAGWKTNFRCALRSTRRFVMLRDNSGDPADPHKVYALSRELCWREGPGTDQTEAEAPAAVPPPQGGPPGPFLAHTHAGLQAPGPLPAPAGDKGDLLLQAVQQSCLADHLLTASWGADPVPTKAPGEGQEGLPLTGACAGGPGLPAGELYGWAVETTPSPGPQPAALTTGEAAAPESPHQAEPYLSPSPSACTAVQEPSPGALDVTIMYKGRTVLQKVVGHPSCTFLYGPPDPAVRATDPQQVAFPSPAELPDQKQLRYTEELLRHVAPGLHLELRGPQLWARRMGKCKVYWEVGGPPGSASPSTPACLLPRNCDTPIFDFRVFFQELVEFRARQRRGSPRYTIYLGFGQDLSAGRPKEKSLVLVKLEPWLCRVHLEGTQREGVSSLDSSSLSLCLSSANSLYDDIECFLMELEQPA
modifications: phosphorylated (sites not given)
On to B1, for which the stoichiometry N – broadly, the number of molecules, sites or subunits per partner or assembly – in “mass photometry [1]” was determined as 2. Also, in “mass photometry [2]”, the “fold tighter Kd of dimerization than cIRF7” value is around 6 fold.
